US20250121078A1, “PEPTIDE DRUG CONJUGATES AND THEIR USES” (priority 2023, published 2025)
Where a SMILES comes first, the peptide text is derived from it. [ ]: non-standard residue; d: D form. The star is where a group is joined. X2 = COc1cc2cc(c1Cl)N(C)C(=O)C[C@H](OC(=O)[C@H](C)N(C)C(=O)CCSSCCC(=O)NCCOCCOCCn1nnc3c1CC[C@H]1[C@@H](CC3)[C@@H]1COC(=O)*)[C@]1(C)O[C@H]1[C@H](C)[C@@H]1C[C@@](O)(NC(=O)O1)[C@H](OC)/C=C/C=C(\C)C2; X1 = COc1cc2cc(c1Cl)N(C)C(=O)C[C@H](OC(=O)[C@H](C)N(C)C(=O)CCSSCCC(=O)*)[C@]1(C)O[C@H]1C(C)[C@@H]1C[C@@](O)(NC(=O)O1)[C@H](OC)/C=C/C=C(\C)C2; d(hArg(Et2)) = CCN=C(NCC)NCCCC[C@@H](N)C(=O)O; dPhe(4-Cl) = N[C@H](Cc1ccc(Cl)cc1)C(=O)O; d2Nal = N[C@H](Cc1ccc2ccccc2c1)C(=O)O; d3Pal = N[C@H](Cc1cccnc1)C(=O)O

Key:
[1] = In vivo pharmacokinetic profile, mouse single IV dose; conditions: for Vss (I/kg) / clearance / AUC(0-t): Mouse IV, dose 5 mg/kg; for clearance / AUC(0-t): in vivo; for AUC(0-t): read-out: AUC(0-24 hr); for AUC coverage: single intravenous dose
Method: Pharmacokinetic properties of compounds of the invention were measured following the procedures described in Liu et al., Bioconjugate Chem. 2017, 28, 7, 1878-1892.

[2] = target: T1, LHRHR, also known as GnRHR (Homo sapiens, UniProt P30968); assay: Radioligand binding assay ([125I]-[D-Trp6]-LHRH displacement)
T1 sequence (P30968 1-328): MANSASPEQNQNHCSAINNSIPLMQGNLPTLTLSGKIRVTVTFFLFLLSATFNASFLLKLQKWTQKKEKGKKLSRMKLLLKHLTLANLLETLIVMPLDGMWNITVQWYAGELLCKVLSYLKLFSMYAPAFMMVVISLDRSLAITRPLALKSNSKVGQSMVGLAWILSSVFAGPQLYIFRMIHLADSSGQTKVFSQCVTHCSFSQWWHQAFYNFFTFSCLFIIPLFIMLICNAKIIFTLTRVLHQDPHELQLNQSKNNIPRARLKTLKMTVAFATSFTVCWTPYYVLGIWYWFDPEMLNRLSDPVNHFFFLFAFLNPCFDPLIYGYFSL
Method: An amount of 2 μg of a purified membrane with LHRHR, also known as GnRHR, was incubated with 0.18 nM [125I]-[D-Trp6]-LHRH and compounds of interest in the incubation buffer (50 mM HEPES, pH 7.4, 5 mM MgCl2, 1 mM CaCl2, and 0.2% BSA). The reaction mixtures were incubated for 1 h at 25° C. and then were transferred to a 96-well GF/B filter plate (Millipore Corp., Billerica, MA, USA), which were terminated by manifold filtration and washed with a wash buffer (50 mM HEPES, pH 7.4, and 100 mM NaCl) for six times. The radioactivity bound to the filter was measured by a Topcount® system (PerkinElmer Inc., Waltham, MA, USA). IC50 values were determined by the concentration of a compound required to inhibit 50% of the specific binding of [125I]-[D-Trp6]-LHRH and calculated by nonlinear regression (GraphPad Software, San Diego, CA, USA). The design of these drug conjugates is to actively targeting LHRH-receptor at tumor site and facilitate drug conjugate accumulation in situ. Therefore, selective and strong binding of the synthetic peptide ligand with the receptor is important to allow enrichment of these conjugates, followed by release of the drug payload in the tumor microenvironment.
Compounds of the invention have a binding as low as 0.17 nM.

[3] = test system: HCC1806 triple negative breast cancer; assay: In vivo anti-tumor activity in triple-negative breast HCC1806 tumor model; set-up: species or system immunodeficient nude mice; conditions: 1 mg/kg to 2.5 mg/kg, every other week, once a week, or twice a week
Method: In vivo anti-tumor activity of Compound 16 was evaluated in triple-negative breast HCC1806 tumor model. HCC1806 cells were suspended with RPMI 1640 medium (phenol red free) and Matrigel™ in 1:1 ratio, and implanted subcutaneously (1×10^6 cells/flank) into the left flank of the immunodeficient nude mice. The tumor volume in mm^3 was calculated by the formula: Volume=(length×width^2)/2. Tumor-bearing mice were randomized (n=8 per group) when the average tumor volume was approximately at 210 mm^3 on day 10 after inoculation. Compound 16 was dissolved in DMA, cremorphor and 5% dextrose solution (1:2:27, v/v/v). Tumor-bearing mice were intravenously administered once weekly (qw) or bi-weekly (b2w) with multiple doses of vehicle control (5 mL/kg) and DBPR376 (2.5 mg/kg). Tumor size and body weight of each animal were measured twice weekly during the study period.
Compounds 8, 9, 11, 14, 16, 25, 26, and 27 were evaluated following the procedure described above.

SMILES: COc1cc2cc(c1Cl)N(C)C(=O)C[C@H](OC(=O)[C@H](C)N(C)C(=O)CCSSCCC(=O)NCCCC[C@@H](NC(=O)[C@H](Cc1ccc(O)cc1)NC(=O)[C@H](CO)NC(=O)[C@@H](Cc1cccnc1)NC(=O)[C@@H](Cc1ccc(Cl)cc1)NC(=O)[C@@H](Cc1ccc3ccccc3c1)NC(C)=O)C(=O)N[C@@H](CC(C)C)C(=O)N[C@@H](CCCNC(=N)N)C(=O)N1CCC[C@H]1C(=O)N[C@H](C)C(N)=O)[C@]1(C)O[C@H]1C(C)[C@@H]1C[C@@](O)(NC(=O)O1)[C@H](OC)/C=C/C=C(\C)C2 (stereo partly shown) [Compound 8] (Ac-[d2Nal][dPhe(4-Cl)][d3Pal]SY[dK](X1)LRP[dA]-NH2)
- Vss (I/kg) [1]: 0.25 I/kg
- clearance [1]: 1.6 mL/min/kg
- AUC(0-t) [1]: 55100 ng·h/mL
- AUC coverage [1]: extensive AUC coverage
- IC50 [2]: 0.1 to 1 nM
- inhibition of in vivo tumor growth [3]: effectively inhibited

SMILES: COc1cc2cc(c1Cl)N(C)C(=O)C[C@H](OC(=O)[C@H](C)N(C)C(=O)CCSC(=O)c1ccc(CN(CCOCCOCCn3nnc4c3CC[C@@H]3[C@H](CC4)[C@H]3COC(=O)N(CCCC[C@H](NC(=O)[C@H](CC(C)C)NC(=O)[C@@H](Cc3ccc(NC(N)=O)cc3)NC(=O)[C@H](Cc3ccc(NC(=O)[C@@H]4CC(=O)NC(=O)N4)cc3)NC(=O)[C@H](CO)NC(=O)[C@@H](Cc3cccnc3)NC(=O)[C@@H](Cc3ccc(Cl)cc3)NC(=O)[C@@H](Cc3ccc4ccccc4c3)NC(C)=O)C(=O)N3CCC[C@H]3C(=O)N[C@H](C)C(N)=O)C(C)C)C(=O)C3(c4ccc(Cl)cc4)CCCCC3)cc1)[C@]1(C)O[C@H]1[C@H](C)[C@@H]1C[C@@](O)(NC(=O)O1)[C@H](OC)/C=C/C=C(\C)C2 [Compound 9]
- Vss (I/kg) [1]: 0.2 I/kg
- clearance [1]: 6.7 mL/min/kg
- AUC(0-t) [1]: 12500 ng·h/mL
- AUC coverage [1]: extensive AUC coverage
- inhibition of in vivo tumor growth [3]: effectively inhibited

SMILES: CCNC(=NCCCC[C@@H](NC(=O)[C@H](CC(C)C)NC(=O)[C@@H](CCCCNC(=O)OC[C@H]1[C@@H]2CCc3nnn(CCOCCOCCN(Cc4ccc(C(=O)SCCC(=O)N(C)[C@@H](C)C(=O)O[C@H]5CC(=O)N(C)c6cc(cc(OC)c6Cl)C/C(C)=C/C=C/[C@@H](OC)[C@@]6(O)C[C@H](OC(=O)N6)[C@@H](C)[C@@H]6O[C@@]56C)cc4)C(=O)C4(c5ccc(Cl)cc5)CCCCC4)c3CC[C@@H]21)NC(=O)[C@H](Cc1ccc(O)cc1)NC(=O)[C@H](CO)NC(=O)[C@@H](Cc1cccnc1)NC(=O)[C@@H](Cc1ccc(Cl)cc1)NC(=O)[C@@H](Cc1ccc2ccccc2c1)NC(C)=O)C(=O)N1CCC[C@H]1C(=O)N[C@H](C)C(N)=O)NCC [Compound 11]
- Vss (I/kg) [1]: 0.1 I/kg
- clearance [1]: 4 mL/min/kg
- AUC(0-t) [1]: 21000 ng·h/mL
- inhibition of in vivo tumor growth [3]: effectively inhibited

SMILES: CCNC(=NCCCC[C@@H](NC(=O)[C@H](CC(C)C)NC(=O)[C@@H](CCCCNC(=O)CCSSCCC(=O)N(C)[C@@H](C)C(=O)O[C@H]1CC(=O)N(C)c2cc(cc(OC)c2Cl)C/C(C)=C/C=C/[C@@H](OC)[C@@]2(O)C[C@H](OC(=O)N2)C(C)[C@@H]2O[C@@]12C)NC(=O)[C@H](Cc1ccc(O)cc1)NC(=O)[C@H](CO)NC(=O)[C@@H](Cc1cccnc1)NC(=O)[C@@H](Cc1ccc(Cl)cc1)NC(=O)[C@@H](Cc1ccc2ccccc2c1)NC(C)=O)C(=O)N1CCC[C@H]1C(=O)N[C@H](C)C(N)=O)NCC (stereo partly shown) [Compound 14] (Ac-[d2Nal][dPhe(4-Cl)][d3Pal]SY[dK](X1)L[d(hArg(Et2))]P[dA]-NH2)
- Vss (I/kg) [1]: 0.2 I/kg
- clearance [1]: 0.9 mL/min/kg
- AUC(0-t) [1]: 88300 ng·h/mL
- AUC coverage [1]: extensive AUC coverage
- IC50 [2]: 1 to 10 nM
- inhibition of in vivo tumor growth [3]: effectively inhibited

SMILES: COc1cc2cc(c1Cl)N(C)C(=O)C[C@H](OC(=O)[C@H](C)N(C)C(=O)CCSC(=O)c1ccc(CN(CCOCCOCCn3nnc4c3CC[C@H]3[C@@H](CC4)[C@@H]3COC(=O)NCCCC[C@@H](NC(=O)[C@H](Cc3ccc(O)cc3)NC(=O)[C@H](CO)NC(=O)[C@@H](Cc3cccnc3)NC(=O)[C@@H](Cc3ccc(Cl)cc3)NC(=O)[C@@H](Cc3ccc4ccccc4c3)NC(C)=O)C(=O)N[C@@H](CC(C)C)C(=O)N[C@@H](CCCNC(=N)N)C(=O)N3CCC[C@H]3C(=O)N[C@H](C)C(N)=O)C(=O)C3(c4ccc(Cl)cc4)CCCCC3)cc1)[C@]1(C)O[C@H]1[C@H](C)[C@@H]1C[C@@](O)(NC(=O)O1)[C@H](OC)/C=C/C=C(\C)C2 [Compound 16]
- Vss (I/kg) [1]: 0.5 I/kg
- clearance [1]: 15.5 mL/min/kg
- AUC(0-t) [1]: 4860 ng·h/mL
- inhibition of in vivo tumor growth [3]: effectively inhibited

SMILES: COc1cc2cc(c1Cl)N(C)C(=O)C[C@H](OC(=O)[C@H](C)N(C)C(=O)CCSSCCC(=O)NCCOCCOCCn1nnc3c1CC[C@H]1[C@@H](CC3)[C@@H]1COC(=O)NCCCC[C@@H](NC(=O)[C@H](Cc1ccc(O)cc1)NC(=O)[C@H](CO)NC(=O)[C@@H](Cc1cccnc1)NC(=O)[C@@H](Cc1ccc(Cl)cc1)NC(=O)[C@@H](Cc1ccc3ccccc3c1)NC(C)=O)C(=O)N[C@@H](CC(C)C)C(=O)N[C@@H](CCCNC(=N)N)C(=O)N1CCC[C@H]1C(=O)N[C@H](C)C(N)=O)[C@]1(C)O[C@H]1[C@H](C)[C@@H]1C[C@@](O)(NC(=O)O1)[C@H](OC)/C=C/C=C(\C)C2 [Compound 25] (Ac-[d2Nal][dPhe(4-Cl)][d3Pal]SY[dK](X2)LRP[dA]-NH2)
- inhibition of in vivo tumor growth [3]: effectively inhibited

SMILES: CCNC(=NCCCC[C@@H](NC(=O)[C@H](CC(C)C)NC(=O)[C@@H](CCCCNC(=O)OC[C@H]1[C@@H]2CCc3nnn(CCOCCOCCNC(=O)CCSSCCC(=O)N(C)[C@@H](C)C(=O)O[C@H]4CC(=O)N(C)c5cc(cc(OC)c5Cl)C/C(C)=C/C=C/[C@@H](OC)[C@@]5(O)C[C@H](OC(=O)N5)[C@@H](C)[C@@H]5O[C@@]45C)c3CC[C@@H]21)NC(=O)[C@H](Cc1ccc(O)cc1)NC(=O)[C@H](CO)NC(=O)[C@@H](Cc1cccnc1)NC(=O)[C@@H](Cc1ccc(Cl)cc1)NC(=O)[C@@H](Cc1ccc2ccccc2c1)NC(C)=O)C(=O)N1CCC[C@H]1C(=O)N[C@H](C)C(N)=O)NCC [Compound 26] (Ac-[d2Nal][dPhe(4-Cl)][d3Pal]SY[dK](X2)L[d(hArg(Et2))]P[dA]-NH2)
- inhibition of in vivo tumor growth [3]: effectively inhibited

SMILES: COc1cc2cc(c1Cl)N(C)C(=O)C[C@H](OC(=O)[C@H](C)N(C)C(=O)CCSC(=O)c1ccc(CN(CCOCCOCCn3nnc4c3CC[C@H]3[C@@H](CC4)[C@@H]3COC(=O)NCCCC[C@@H](NC(=O)[C@H](Cc3ccc(O)cc3)NC(=O)[C@H](CO)NC(=O)[C@@H](Cc3cccnc3)NC(=O)[C@@H](Cc3ccc(Cl)cc3)NC(=O)[C@@H](Cc3ccc4ccccc4c3)NC(C)=O)C(=O)N[C@@H](CC(C)C)C(=O)N[C@H](CCCNC(=N)N)C(=O)N3CCC[C@H]3C(=O)N[C@H](C)C(N)=O)C(=O)C3(c4ccc(Cl)cc4)CCCCC3)cc1)[C@]1(C)O[C@H]1[C@H](C)[C@@H]1C[C@@](O)(NC(=O)O1)[C@H](OC)/C=C/C=C(\C)C2 [Compound 27]
- Vss (I/kg) [1]: 0.1 I/kg
- clearance [1]: 6.4 mL/min/kg
- AUC(0-t) [1]: 15900 ng·h/mL
- inhibition of in vivo tumor growth [3]: effectively inhibited
